From patent US20150086555A1

Experiments:
Settings in all cases: remark: other sources report otherwise
[1] = biological target: T1, recombinant soluble homotrimeric HA of A/duck/Yangzhou/02/05 (H8N4) (Influenza A virus A/duck/Yangzhou/02/2005(H8N4)); test: HA microarray, BCC supernatant
[2] = biological target: T2, recombinant soluble homotrimeric HA of A/swine/Ontario/01911-2/99 (H4N6) (Influenza A virus A/Swine/Ontario/01911-2/99 (H4N6)); test: HA microarray, BCC supernatant
[3] = biological target: recombinant soluble homotrimeric HA of A/Japan/305/57 (H2N2) (Influenza A virus A/Japan/305/1957(H2N2)); test: HA microarray, BCC supernatant
[4] = biological target: T3, recombinant soluble homotrimeric HA of A/Vietnam/1203/04 (H5N1) (Influenza A virus A/VietNam/1203/2004(H5N1)); test: HA microarray, BCC supernatant
[5] = biological target: T4, recombinant soluble homotrimeric HA of A/Netherlands/219/03 (H7N7) (Influenza A virus A/Netherlands/219/03(H7N7)); test: HA microarray, BCC supernatant
[6] = biological target: recombinant homotrimeric HA A/Hong Kong/1073/99 H9N2 (Influenza A virus A/Hong Kong/1073/99 (H9N2)); test: protein microarray, purified IgG, trimeric HA
[7] = biological target: recombinant homotrimeric HA A/Anhui/1/05 H5N1 (Influenza A virus A/Anhui/1/2005(H5N1)); test: protein microarray, purified IgG, trimeric HA
[8] = biological target: recombinant homotrimeric HA A/Indonesia/5/05 H5N1 (Influenza A virus A/Indonesia/5/2005(H5N1)); test: protein microarray, purified IgG, trimeric HA
[9] = biological target: recombinant homotrimeric HA A/Vietnam/1203/04 H5N1 (Influenza A virus A/VietNam/1203/2004(H5N1)); test: protein microarray, purified IgG, trimeric HA
[10] = biological target: recombinant homotrimeric HA A/duck/Yangzhou/02/05 H8N4 (Influenza A virus A/duck/Yangzhou/02/2005(H8N4)); test: protein microarray, purified IgG, trimeric HA
[11] = biological target: recombinant homotrimeric HA A/Hong Kong/156/97 H5N1 (Influenza A virus A/Hong Kong/156/97 (H5N1)); test: protein microarray, purified IgG, trimeric HA
[12] = biological target: recombinant homotrimeric HA A/Japan/305/57 H2N2 (Influenza A virus A/Japan/305/1957(H2N2)); test: protein microarray, purified IgG, trimeric HA
[13] = biological target: recombinant homotrimeric HA A/California/4/09 H1N1 (Influenza A virus A/California/04/2009(H1N1)); test: protein microarray, purified IgG, trimeric HA
[14] = biological target: recombinant homotrimeric HA A/South Carolina/1/18 H1N1 (Influenza A virus A/South Carolina/1/18 (H1N1)); test: protein microarray, purified IgG, trimeric HA
[15] = biological target: recombinant homotrimeric HA A/Egypt/3300-NAMRU3/08 H5N1 (Influenza A virus A/Egypt/3300-NAMRU3/2008(H5N1)); test: protein microarray, purified IgG, trimeric HA
[16] = biological target: recombinant soluble homotrimeric HA of A/Egypt/3300-NAMRU3/08 (H5N1) (Influenza A virus A/Egypt/3300-NAMRU3/2008(H5N1)); test: trimeric HA microarray, transfection supernatant set 5
[17] = biological target: T1, recombinant soluble homotrimeric HA of …; test: as above
[18] = biological target: recombinant soluble homotrimeric HA of A/Anhui/1/05 (H5N1) (Influenza A virus A/Anhui/1/2005(H5N1)); test: as above
[19] = biological target: T2, recombinant soluble homotrimeric HA of …; test: as above
[20] = biological target: recombinant soluble homotrimeric HA of A/Hong Kong/156/97 (H5N1) (Influenza A virus A/Hong Kong/156/97 (H5N1)); test: as above
[21] = biological target: T3, recombinant soluble homotrimeric HA of …; test: as above
[22] = biological target: recombinant soluble homotrimeric HA of A/northern shoveler/California/HKWF115/07 (H6) (Influenza A virus A/northern shoveler/California/HKWF115/2007(H6N1)); test: as above
[23] = biological target: recombinant soluble homotrimeric HA of A/Indonesia/5/05 (H5N1) (Influenza A virus A/Indonesia/5/2005(H5N1)); test: as above
[24] = biological target: T5, recombinant soluble homotrimeric HA of A/chicken/Vietnam/NCVD-016/08 (H5N1) (Influenza A virus A/chicken/Vietnam/NCVD-016/2008(H5N1)); test: as above
[25] = biological target: recombinant soluble homotrimeric HA of A/South Carolina/1/18 (H1N1) (Influenza A virus A/South Carolina/1/18 (H1N1)); test: as above
[26] = biological target: T1, recombinant soluble homotrimeric HA of …; test: trimeric HA microarray, transfection supernatant set 2
[27] = biological target: recombinant soluble homotrimeric HA of A/California/4/09 (H1N1) (Influenza A virus A/California/04/2009(H1N1)); test: as above
[28] = biological target: T6, recombinant soluble homotrimeric HA of A/Wisconsin/67/05 (H3N2) (Influenza A virus A/Wisconsin/67/2005(H3N2)); test: as above
[29] = biological target: T4, recombinant soluble homotrimeric HA of …; test: as above
[30] = biological target: T5, recombinant soluble homotrimeric HA of …; test: as above
[31] = biological target: T6, recombinant soluble homotrimeric HA of …; test: HA microarray, BCC supernatant
[32] = biological target: recombinant soluble homotrimeric HA of A/Solomon Islands/3/06 (H1N1) (Influenza A virus A/Solomon Islands/3/2006(H1N1)); test: HA microarray, BCC supernatant
[33] = biological target: recombinant homotrimeric HA A/Solomon Islands/3/06 H1N1 (Influenza A virus A/Solomon Islands/3/2006(H1N1)); test: protein microarray, purified IgG, trimeric HA
[34] = biological target: recombinant homotrimeric HA A/Wisconsin/67/05 H3N2 (Influenza A virus A/Wisconsin/67/2005(H3N2)); test: protein microarray, purified IgG, trimeric HA

B1: TCN-542 (5079_A16) (antibody, V domains shown)
VH: QVQLQESGPGLVKPSQTLSLTCTVSGGSISSGNYYWNWVRQHPGKGLEWIGYIYYRGSTFYNPSLKSRVTISIDTSKNQFSLRLSSVTAADTAVYYCAKDTRSSLDNYQYGMDVWGQGTTVTVSS
VL: QTVVTQEPSLTVSPGGTVTLTCASSTGAVTSSYFPNWFQQKPGQAPRPLIYSTTIRHSWTPARFSGSLLGGKAALTLSGVQPEDEADYYCLLYSGGDPVAFGGGTKLTVL
- Trimeric HA Binding: RLU [1]: 332 RLU
- Trimeric HA Binding: RLU [2]: 350 RLU
- Trimeric HA Binding: RLU [3]: 142 RLU
- Trimeric HA Binding: RLU [4]: 306 RLU
- Trimeric HA Binding: RLU [5]: 909 RLU
- Trimeric HA Binding: RLU [6]: 588 RLU
- Trimeric HA Binding: RLU [7]: 10500 RLU
- Trimeric HA Binding: RLU [8]: 108 RLU
- Trimeric HA Binding: RLU [9]: 1060 RLU
- Trimeric HA Binding: RLU [10]: 182 RLU
- Trimeric HA Binding: RLU [11]: 894 RLU
- Trimeric HA Binding: RLU [12]: 502 RLU
- Trimeric HA Binding: RLU [13]: 238 RLU
- Trimeric HA Binding: RLU [14]: 117 RLU
- Trimeric HA Binding: RLU [15]: 730 RLU
- Trimeric HA Binding: RLU [16]: 14800 RLU
- Trimeric HA Binding: RLU [17]: 11600 RLU
- Trimeric HA Binding: RLU [18]: 7410 RLU
- Trimeric HA Binding: RLU [19]: 14300 RLU
- Trimeric HA Binding: RLU [20]: 786 RLU
- Trimeric HA Binding: RLU [21]: 29500 RLU
- Trimeric HA Binding: RLU [22]: 2370 RLU
- Trimeric HA Binding: RLU [23]: 1760 RLU
- Trimeric HA Binding: RLU [24]: 5460 RLU
- Trimeric HA Binding: RLU [25]: 1120 RLU

B2: TCN-526 (5084_C17) (antibody, V domains shown)
VH: EVLMVESGGGLVQPGGSVRLSCVASGFSFSSHWMTWVRQAPGKGLEWVANIEDDGGDKYYVDSVKGRFIISRDNAKNSVYLQMNSLRAEDTAVYFCARGSGSSDRSDYDPHYYYYLDVWGKGATVTVSS
VL: DIQLTQSPSSLSASVGDRVTITCRASQSISRYLNWYQQKPGKAPKLLLFAASTLLDGVPSRFSGSGSGTDFTLTISSLQPEDFATYYCQRNHSPSWTFGQGTRVEIK
- Trimeric HA Binding: RLU [26]: 4300 RLU
- Trimeric HA Binding: RLU [27]: 3600 RLU
- Trimeric HA Binding: RLU [28]: 27800 RLU
- Trimeric HA Binding: RLU [29]: 5660 RLU
- Trimeric HA Binding: RLU [30]: 3290 RLU
- Trimeric HA Binding: RLU [1]: 596 RLU
- Trimeric HA Binding: RLU [3]: 246 RLU
- Trimeric HA Binding: RLU [31]: 49300 RLU
- Trimeric HA Binding: RLU [32]: 341 RLU
- Trimeric HA Binding: RLU [5]: 1340 RLU
- Trimeric HA Binding: RLU [33]: 804 RLU
- Trimeric HA Binding: RLU [34]: 26600 RLU
- Trimeric HA Binding: RLU [12]: 642 RLU
- Trimeric HA Binding: RLU [13]: 620 RLU
- Trimeric HA Binding: RLU [14]: 87 RLU
